Results reported in IntAct's records for PubMed 15047893.

B1: Serine/threonine-protein kinase TOUSLED (Arabidopsis thaliana (Mouse-ear cress)), Q39238 (parent)
chain: MSDDMVLHFSSNSSNQSDHSLPDKIAKLEARLTGKTPSSAKPPQQQQQQQQQVSLWSSASAAVKVVTSTPPGLSETSISDSDDENTGDFLIRANTKKRQKVQESNNFSVVDHVEPQEAAYDGRKNDAESKTGLDVSKKKQGRGRASSTGRGRGSKTNNDVTKSQFVVAPVSAASQLDASDQKDFRPDGQLRNGECSLQDEDLKSLRAKIAMLEEELRKSRQDSSEYHHLVRNLENEVKDLKDQEQQGKQKTTKVISDLLISVSKTERQEARTKVRNESLRLGSVGVLRTGTIIAETWEDGQMLKDLNAQLRQLLETKEAIERQRKLLKKRQNGDKNDGTDTESGAQEEDIIPDEVYKSRLTSIKREEEAVLRERERYTLEKGLLMREMKRIRDEDGSRFNHFPVLNSRYALLNLLGKGGFSEVYKAYDLVDHRYVACKLHGLNAQWSEEKKQSYIRHANRECEIHKSLVHHHIVRLWDKFHIDMHTFCTVLEYCSGKDLDAVLKATSNLPEKEARIIIVQIVQGLVYLNKKSQKIIHYDLKPGNVLFDEFGVAKVTDFGLSKIVEDNVGSQGMELTSQGAGTYWYLPPECFELNKTPMISSKVDVWSVGVLFYQMLFGKRPFGHDQSQERILREDTIIKAKKVEFPVTRPAISNEAKDLIRRCLTYNQEDRPDVLTMAQDPYLAYSKK
partner: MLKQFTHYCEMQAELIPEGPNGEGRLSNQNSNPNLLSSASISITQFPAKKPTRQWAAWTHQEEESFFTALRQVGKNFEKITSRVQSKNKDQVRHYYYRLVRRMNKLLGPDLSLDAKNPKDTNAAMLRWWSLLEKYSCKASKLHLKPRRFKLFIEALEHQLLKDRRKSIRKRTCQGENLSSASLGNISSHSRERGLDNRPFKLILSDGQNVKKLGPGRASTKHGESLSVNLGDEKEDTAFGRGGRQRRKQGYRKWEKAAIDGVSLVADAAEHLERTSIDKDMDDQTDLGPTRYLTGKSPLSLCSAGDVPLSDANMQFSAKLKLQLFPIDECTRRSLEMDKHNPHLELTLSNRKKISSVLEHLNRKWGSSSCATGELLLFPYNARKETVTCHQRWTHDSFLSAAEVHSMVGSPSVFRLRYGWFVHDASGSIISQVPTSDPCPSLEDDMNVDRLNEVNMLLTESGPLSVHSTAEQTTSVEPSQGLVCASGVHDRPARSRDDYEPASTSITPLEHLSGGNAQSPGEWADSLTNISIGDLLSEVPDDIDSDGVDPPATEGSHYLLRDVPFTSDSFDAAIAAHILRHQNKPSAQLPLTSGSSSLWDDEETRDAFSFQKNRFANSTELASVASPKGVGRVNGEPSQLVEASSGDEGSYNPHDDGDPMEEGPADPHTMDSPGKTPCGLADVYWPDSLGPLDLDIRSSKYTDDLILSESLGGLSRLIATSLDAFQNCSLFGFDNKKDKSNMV
B2: Serine/threonine-protein kinase TOUSLED (Arabidopsis thaliana (Mouse-ear cress)), Q39238 (parent)
chain: B1 chain
partner: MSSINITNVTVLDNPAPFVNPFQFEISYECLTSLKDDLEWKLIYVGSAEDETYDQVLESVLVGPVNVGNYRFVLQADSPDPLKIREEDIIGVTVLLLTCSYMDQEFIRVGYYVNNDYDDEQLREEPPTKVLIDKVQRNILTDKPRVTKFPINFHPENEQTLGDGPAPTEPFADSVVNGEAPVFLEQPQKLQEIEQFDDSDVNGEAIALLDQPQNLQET

Variants of: B1
Details: with tki1_arath TKI1, Q8LJT8

**Q.** With K438E as the variant, how does the “effect of a mutation on the interaction” value read?
**A.** Its value is “disrupting interaction”.

Variants of: B2
Details: with asf1b_arath ASF1B

**Q.** Which “effect of a mutation on the interaction” value does the source give for K438E here?
**A.** Its value is “disrupting interaction”.
